# In the supplement of paper PMC12042874:
# ± gives the uncertainty stated by the source.
# What was measured:
# [1] = amyloid nucleation score (Sup35N fusion, yeast selection) (log enrichment); library NNK2; higher = more nucleation; inactive = no reads after selection
# Procedure, shortened: (§1)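 Libraries of peptides of 20 random codons fused to Sup35N were expressed in psi-negative yeast and induced 24 hours with 100 μM copper sulfate. Selection was 7 days at 30°C on medium lacking adenine and uracil, and plasmid inserts were Illumina-sequenced before and after selection. Nucleation score is the DiMSum log enrichment of output over input reads, centred on the mode score of non-aggregating sequences, and sequences with under 100 input reads were left out.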
# [2] = amyloid nucleation score (Sup35N fusion, yeast selection) (log enrichment); library NNK3; higher = more nucleation; inactive = no reads after selection
# Procedure, shortened: as §1
Substance,amyloid nucleation score [1],amyloid nucleation score [2]
QVFFFLITSRVRSVRFSQEF,1.62 ± 0.25,–
VGFVCDLTGMNMGRFFKCGN,inactive,–
PDRSTFRVYSLHWTFCEHRC,3.74 ± 0.1,–
FYLIIDPIPMDCSGIIVNCY,inactive,–
GGYDGVSQMCHFEITWNWMT,1.37 ± 0.29,–
MSAMPDWFPLQWNWRLGQVL,1.33 ± 0.18,–
WMTRIFTINVGNWWGFMHSR,3.02 ± 0.056,–
WNCLICRYVNVCKLLCFYY,6.505 ± 0.031,–
VYEAWRTMQTGMYGVNRVWS,0.911 ± 0.15,–
LCRNSSVFRCSGK,0.311 ± 0.17,–
ETHFVTKDLASSLGKLAHPY,8.848 ± 0.069,–
MSNDRDVVKVWFFPYDPHQS,-0.378 ± 0.26,–
NRIYVQNRPWSIPENVELTG,-0.821 ± 0.78,–
FICVCIVKNKGMGRPCN,2.72 ± 0.1,–
VMVCGTFANKLRLPVSIELT,0.534 ± 0.28,–
NGCSYLERVYVVCYDDMAFG,0.336 ± 0.5,–
AFEDVDVQS,0.94 ± 0.32,–
TERLICMRTSMPSFIYVFWD,-0.847 ± 0.54,–
YTFKYLSRMYLHYSVKGMWL,0.325 ± 0.8,–
RQIALCGLI,3.47 ± 0.096,–
FSPLCYSYV,-1.22 ± 1,–
FYQGLATILSSSLVPIHRHQ,inactive,–
ASSTRRSRSFNIGILCMFRM,5.66 ± 0.06,–

Substance,amyloid nucleation score [1],amyloid nucleation score [2]
FWRVLLSTLHTIFNMRNNMP,-1.28 ± 0.54,–
YNCGSLILNRISSGL,-2.21 ± 0.76,–
VLFDF,0.652 ± 0.56,–
SEEIGLT,0.426 ± 0.26,–
TLVLFGTLISMLQL,6.24 ± 0.073,–
MNLSGVQVAMFSSQPVALTG,0.097 ± 0.63,–
NQLVWSLNNDLGMENVGGRV,1.46 ± 0.44,–
GCVRIMPCVFGSVRWHWYVW,1.28 ± 0.25,–
VLFRELRSTTASRTGDGDMM,4.61 ± 0.057,–
LMMKEPDPSVC,-0.101 ± 0.42,–
ACSQLSYWTFHSPWP,4.07 ± 0.072,–
ELVRDGYTPFLFLILETVVM,-0.202 ± 0.49,–
GAGHNNLLEDAFTSRSVTAR,0.489 ± 0.28,–
SIIWQRLLGIFNFLGAPESM,inactive,–
ALFMDPFAVTLMRGL,0.137 ± 0.54,–
VMSNFFVLRNGCWPMGRG,6.124 ± 0.049,–
TLNRTW,0.166 ± 0.16,–
VLSFRSRTSKNKFRGAQGVT,–,inactive
RQERCGSALPCCCKMIDRRA,–,inactive
PFACAVAKNPHES,–,inactive
LDVVYRDIIDFRVLVESVYF,–,inactive
LDNISVLIIFL,–,1.34 ± 0.11
INVVSEFGFGLQSTFRSDLV,–,inactive

Substance,amyloid nucleation score [1],amyloid nucleation score [2]
RDYAFNPMFCCATNAKFMKG,–,1.96 ± 0.06
PFSSGQSVEYL,–,inactive
SLDIKPSMRCGRRCVRGRST,–,inactive
FASTVCEIPSFPWTKPRIMV,–,inactive
YYSGCVLIRRILYLGRVGSP,–,inactive
MPDLITGGKPAIRWYYGSDS,–,inactive
VQSSIESLPDPIFRYLQSIS,–,inactive
CTVNCMTNNATVLVVRGPLR,–,2.26 ± 0.067
YRYNNLKRCGNSAQWLAISS,–,-0.08 ± 0.34
VSYGPA,–,inactive
APLSNFALHIPEELRLESSF,–,0.176 ± 0.77
EAYEAQD,–,inactive
HLIMNSDLGAATNIFMNPVA,–,inactive
LNSKSSLVPNMLWDMREHAI,–,1.04 ± 0.12
FYLCKRMNGSWNTLISV,–,inactive
MWFPSVLWTIISQSYEMQKL,–,0.783 ± 0.12
PVMSS,–,inactive
GSICFNPTVWLVSRYRCS,–,1.19 ± 0.12
NYGFGRVSAFYHQLA,–,inactive
CLRLGLIMDTKK,–,inactive
WVGLVPYPMVAQEVFNHQD,–,inactive
EQLISTSPLCVFIGFLVVLY,–,inactive
WPANGMSRLVNRL,–,inactive

Substance,amyloid nucleation score [1],amyloid nucleation score [2]
VTKGWQGLGGLMGGEVCPWV,–,inactive
IKLVIANCNYMMYVEMV,–,inactive
IMILFI,–,0.13 ± 0.49
SLCDSVGSKSVF,–,inactive
YLSPVKRRYD,–,inactive
RYNPFRIQELSMLFVLERTL,–,0.014 ± 0.71
TFFSYSRTALGATYYSLIIC,–,inactive
VRPFPFTWSSSNKEV,–,inactive
LYLTSCDIYGAGTIGRWVAV,–,inactive
LKCDWC,–,inactive
LVMKQRLIMLYVKLNKAFLA,–,inactive
TKRCKYCTKGNVQTHTWVAF,–,0.466 ± 0.23
TWMKMSTEWRTLDLDCWNSS,–,1.34 ± 0.13
ANYFTPTNCSVRLRWISDPT,–,inactive
LVYSDCHRIISHWFFRYTWQ,–,inactive
WCQCRKLFWVYAHGEHFSSC,–,1.09 ± 0.12
ITRDDTCSVYRLVK,–,inactive
CYQSE,–,inactive
AVLSLCINGIVALKGDSGCC,–,0.478 ± 0.21
RLTVYISQRKKHHCLMERSH,–,0.221 ± 0.33
ALIRITRYYLSFTGY,–,inactive
FLMWVSR,–,1.08 ± 0.12
GECPRQRVSLM,–,inactive

Substance,amyloid nucleation score [1],amyloid nucleation score [2]
TNYYFALLGYYHLFSSTGHR,–,2.66 ± 0.064
MVFMADK,–,0.268 ± 0.2
VTSYYSHISYVTL,–,inactive
VVRYDEGVVLNSRFLLSPGW,–,inactive
FWRSGNFYVNTVVLCASSRE,–,2.03 ± 0.099
LDLLSAVGGVQRLIIHCCWM,–,inactive
RSFKWNSECILWVSMLFSM,–,inactive
CRMERGRFRLLKTQ,–,inactive
RPSCMFCPSHAMARLPPVGS,–,inactive
VRCVGGHSHDHWETVWGVFG,–,inactive
GYCGQVCWFNAKSWMKRMTF,–,inactive
SFRFYVERL,–,inactive
LLSFENNSQLVYVCIDNTLE,–,inactive
SCKVVPCYHVDDMVEL,–,inactive
HAAYGKCLQWFTRLVCYPVA,–,inactive
SGLKTFLEMSLHLCVLLARA,–,inactive
MVRMDHCQVEDSMVTNVD,–,inactive
LYTDVEYRVWCVTFLVRPSK,–,inactive
YSMRRTDIHPVVFRQ,–,inactive
SSTGSLIPQPAFSYFCTATP,–,inactive
CNRVPVFFMFYVEQGVLRWN,–,2.13 ± 0.081
CRDYYYHSQYCVVASVGTVV,–,inactive
GYQLLNHLHAYTAGTNNLRL,–,inactive

Substance,amyloid nucleation score [1],amyloid nucleation score [2]
SANSQYDI,–,inactive
RLHTMWTYP,–,inactive
IGRTCMCLYSAVVFIRHGTT,–,inactive
VVEIMDLS,–,inactive
FNWTKS,–,inactive
IFNNYIIYTSYKEV,–,3.49 ± 0.077
SSMGVVSVRAN,–,inactive
FVWMLRWMGRDD,–,0.816 ± 0.24
LYWMVSMTTDR,–,inactive
NCFVSICLFFASTFWLGLHN,–,inactive
GKGFCLLVVSSVMRDVGLVQ,–,inactive
RYSESLMFRFKWDDYYRGRV,–,-0.307 ± 0.88
MTYCRVFRNRASDKPYMMRL,–,inactive
FDRAFYNHWFSCGFPEGWHT,–,0.501 ± 0.17
DRNLDVPCLDVLRSMLDVCN,–,-0.464 ± 0.96
RSNNGSSERGGDIEDLSPNK,–,inactive
TCSDDCFLMKWYEDIRSVVT,–,inactive
LNSFQHGY,–,inactive
SLMYKCLINSILY,–,1.97 ± 0.051
LSYFSLLGFRYSRGVMGYQM,–,inactive
YSGLDSCVD,–,inactive
NMNCCLKMSVYLYRLLVHM,–,inactive
AVTSVSWLIIIDGALRSVKG,–,inactive

Substance,amyloid nucleation score [1],amyloid nucleation score [2]
VDVSRTFALCHRDLPMMP,–,inactive
MIFLLTSIL,–,inactive
SHVWFDRGLIETEMSAHRY,–,inactive
LILYIVAISCSSARSLLRVG,–,inactive
RFMQWGIFS,–,inactive
SMWYLVLN,–,inactive
KHMSHRCILMLSPYSDRNIM,–,inactive
NDKVGRAL,–,inactive
YYLNKVVSIVNRLFVAFAPC,–,inactive
LWINCSWMFNWM,–,2.43 ± 0.07
EDIGGCECRYSIKDVY,–,inactive
MVDSRLNSSLNYSLCLSDVK,–,inactive
MYSPVFRI,–,inactive
MTNLCRRVGKKFPNRSHSGY,–,inactive
RSQWLFISKKFDLAIYIAV,–,inactive
QFIEMSSQYFSMRYVDRVAD,–,inactive
YVRIQRMRFYSCEHWVHHIG,–,inactive
NFFNLLGMKLVR,–,inactive
RQGYVADNSTGESDIGDGLG,–,inactive
DIVILSTSASSTS,–,inactive
CGVEHYWRGLVG,–,inactive
MAQIRATIFMMMSANVDRYM,–,inactive
